Assay results: US20170260289A1 (Novo Nordisk, published 2017)
Residue numbers refer to the chain shown, from its start. Blank lines part the entries; values can stand above or below the binder they belong to.

How the values were obtained:
Assay in all cases: cell-based or functional assay
[1] = target: T1, human TFPI alpha (full-length TFPIα) (human, UniProt P10646 29-304)
[2] = target: T2, endogenous TFPI of human plasma (human, UniProt P10646 29-304, limits assumed)
[3] = target: T1, human TFPI alpha (full-length TFPIα); remark: listed apart in the source
[4] = target: T2, endogenous TFPI of human plasma; remark: listed apart in the source
[5] = target: T1, human TFPI alpha (full-length TFPIα); remark: listed apart in the source

B1: Fab 0295 (Fab, V domains shown)
VH: QVQLKQSGPGLVQPSQSLSITCTVSGFSLTNYGVHWVRQSPGKGLEWLAVIWRGGSIDYNAAFMSRLSITKDNSKSQVFFKMNSLQADDTAIYYCAKNSHGNYVGYAMDYWGQGTSVTVSS
VL: GIVMTQSQKFMSTTVGDRVSITCKASQSVGPAVAWYQQKPGQSPKLLIYSASNRYTGVPDRFTGSGSGADFTLTISNLHSEDLADYFCQQYTSYPTFGGGTKLEIKR
- Peak (nM); thrombin generation, FVIII-neutralised plasma + 10 nM TFPIα; 10 nM Fab [1]: 10.9 nM
- Peak (nM); thrombin generation, FVIII-neutralised plasma + 10 nM TFPIα; 50 nM Fab [1]: 31.8 nM
- Peak (nM); thrombin generation, FVIII-neutralised plasma + 10 nM TFPIα; 100 nM Fab [1]: 33.8 nM
- ttPeak (min); thrombin generation, FVIII-neutralised plasma + 10 nM TFPIα; 10 nM Fab [1]: 25.2 min
- ttPeak (min); thrombin generation, FVIII-neutralised plasma + 10 nM TFPIα; 50 nM Fab [1]: 11.5 min
- ttPeak (min); thrombin generation, FVIII-neutralised plasma + 10 nM TFPIα; 100 nM Fab [1]: 10.8 min
- Peak (nM); thrombin generation, FVIII-neutralised plasma, endogenous TFPI; 10 nM Fab [2]: 94 nM
- Peak (nM); thrombin generation, FVIII-neutralised plasma, endogenous TFPI; 50 nM Fab [2]: 101 nM
- Peak (nM); thrombin generation, FVIII-neutralised plasma, endogenous TFPI; 100 nM Fab [2]: 103 nM
- ttPeak (min); thrombin generation, FVIII-neutralised plasma, endogenous TFPI; 10 nM Fab [2]: 8.4 min
- ttPeak (min); thrombin generation, FVIII-neutralised plasma, endogenous TFPI; 50 nM Fab [2]: 8.2 min
- ttPeak (min); thrombin generation, FVIII-neutralised plasma, endogenous TFPI; 100 nM Fab [2]: 8.2 min

B4: mAb 2F22 (antibody, IgG1, V domains shown)
VH: B1 VH
VL: B1 VL
- Peak (nM); thrombin generation, FVIII-neutralised plasma + 20 nM TFPIα; 200 nM antibody [5]: 23.7 nM
- ttPeak (min); thrombin generation, FVIII-neutralised plasma + 20 nM TFPIα; 200 nM antibody [5]: 13.6 min

B5: Fab 0088 (Fab, V domains shown)
VH: EVQLVESGGGLVKPGGSLRLSCAASGFTFSNYAMSWVRQTPEKRLEWVATISRSGSYSYFPDSVQGRFTISRDNAKNSLYLQMNSLRAEDTAVYYCARLGGYDEGDAMDSWGQGTTVTVSS
VL: DIVMTQTPLSLSVTPGQPASISCKSSQSLLESDGKTYLNWYLQKPGQSPQLLIYLVSILDSGVPDRFSGSGSGTDFTLKISRVEAEDVGVYYCLQATHFPQTFGGGTKVEIKR
- Peak (nM); thrombin generation, FVIII-neutralised plasma + 10 nM TFPIα; 10 nM Fab [1]: 12.7 nM
- Peak (nM); thrombin generation, FVIII-neutralised plasma + 10 nM TFPIα; 50 nM Fab [1]: 42.9 nM
- Peak (nM); thrombin generation, FVIII-neutralised plasma + 10 nM TFPIα; 100 nM Fab [1]: 54.2 nM
- ttPeak (min); thrombin generation, FVIII-neutralised plasma + 10 nM TFPIα; 10 nM Fab [1]: 29 min
- ttPeak (min); thrombin generation, FVIII-neutralised plasma + 10 nM TFPIα; 50 nM Fab [1]: 21.2 min
- ttPeak (min); thrombin generation, FVIII-neutralised plasma + 10 nM TFPIα; 100 nM Fab [1]: 20.2 min
- Peak (nM); thrombin generation, FVIII-neutralised plasma, endogenous TFPI; 10 nM Fab [2]: 85.6 nM
- Peak (nM); thrombin generation, FVIII-neutralised plasma, endogenous TFPI; 50 nM Fab [2]: 85.2 nM
- Peak (nM); thrombin generation, FVIII-neutralised plasma, endogenous TFPI; 100 nM Fab [2]: 90.2 nM
- ttPeak (min); thrombin generation, FVIII-neutralised plasma, endogenous TFPI; 10 nM Fab [2]: 11.5 min
- ttPeak (min); thrombin generation, FVIII-neutralised plasma, endogenous TFPI; 50 nM Fab [2]: 11.6 min
- ttPeak (min); thrombin generation, FVIII-neutralised plasma, endogenous TFPI; 100 nM Fab [2]: 11.6 min

B6: mAb 2021 (antibody, IgG4, V domains shown)
VH: B5 VH
VL: B5 VL
- Peak (nM); thrombin generation, FVIII-neutralised plasma + 20 nM TFPIα; 200 nM antibody [5]: 17.2 nM
- ttPeak (min); thrombin generation, FVIII-neutralised plasma + 20 nM TFPIα; 200 nM antibody [5]: 26.2 min

Results, then the binder that gave them:

- Peak (nM); thrombin generation, FVIII-neutralized plasma + 10 nM TFPI alpha; 100.0 nM mAb [3]: 44.9 nM
- ttPeak (min); thrombin generation, FVIII-neutralized plasma + 10 nM TFPI alpha; 100.0 nM mAb [3]: 11.7 min
- Peak (nM); thrombin generation, FVIII-neutralized plasma, no TFPI added; 10.0 nM mAb [4]: 140 nM
- ttPeak (min); thrombin generation, FVIII-neutralized plasma, no TFPI added; 10.0 nM mAb [4]: 7.8 min
B2: mAb 0336 (antibody, human IgG1, kappa, V domains shown)
VH: B1 VH
VL: B1 VL

- Peak (nM); thrombin generation, FVIII-neutralised plasma + 20 nM TFPIα; 200 nM antibody [5]: 20.9 nM
- ttPeak (min); thrombin generation, FVIII-neutralised plasma + 20 nM TFPIα; 200 nM antibody [5]: 14.6 min
B3: mAb 2F3 (antibody, IgG1, V domains shown)
VH: B1 VH with T30S, N31S, A49G, I57T, Y59F, L67V, I69F
VL: DIVMTQSQKFMSTTVGDKVSIPCKASENVGAAVAWYQQKPGQSPTLLIYSASNRYTGIPDRFTGSGSGTDFTLTIRTVQSEDLADYFCQQYTNYPTFGGGTKLEIKR

- Peak (nM); thrombin generation, FVIII-neutralised plasma + 10 nM TFPIα; 10 nM Fab [1]: 0.4 nM
- Peak (nM); thrombin generation, FVIII-neutralised plasma + 10 nM TFPIα; 50 nM Fab [1]: 0.8 nM
- Peak (nM); thrombin generation, FVIII-neutralised plasma + 10 nM TFPIα; 100 nM Fab [1]: 1.4 nM
- ttPeak (min); thrombin generation, FVIII-neutralised plasma + 10 nM TFPIα; 10 nM Fab [1]: 106 min
- ttPeak (min); thrombin generation, FVIII-neutralised plasma + 10 nM TFPIα; 50 nM Fab [1]: 76.2 min
- ttPeak (min); thrombin generation, FVIII-neutralised plasma + 10 nM TFPIα; 100 nM Fab [1]: 48.1 min
- Peak (nM); thrombin generation, FVIII-neutralised plasma, endogenous TFPI; 10 nM Fab [2]: 10 nM
- Peak (nM); thrombin generation, FVIII-neutralised plasma, endogenous TFPI; 50 nM Fab [2]: 19.8 nM
- Peak (nM); thrombin generation, FVIII-neutralised plasma, endogenous TFPI; 100 nM Fab [2]: 29.6 nM
- ttPeak (min); thrombin generation, FVIII-neutralised plasma, endogenous TFPI; 10 nM Fab [2]: 21 min
- ttPeak (min); thrombin generation, FVIII-neutralised plasma, endogenous TFPI; 50 nM Fab [2]: 10.2 min
- ttPeak (min); thrombin generation, FVIII-neutralised plasma, endogenous TFPI; 100 nM Fab [2]: 8.9 min
B7: Fab 0313 (Fab, V domains shown)
VH: B5 VH with T40A, E42G, R44G, A49S, F60Y, P61A, Q65K
VL: B5 VL

- Peak (nM); thrombin generation, FVIII-neutralized plasma + 10 nM TFPI alpha; 100.0 nM mAb [3]: 28.3 nM
- ttPeak (min); thrombin generation, FVIII-neutralized plasma + 10 nM TFPI alpha; 100.0 nM mAb [3]: 24.5 min
- Peak (nM); thrombin generation, FVIII-neutralized plasma, no TFPI added; 10.0 nM mAb [4]: 118 nM
- ttPeak (min); thrombin generation, FVIII-neutralized plasma, no TFPI added; 10.0 nM mAb [4]: 8.5 min
B8: mAb 0310 (antibody, human IgG1, kappa, V domains shown)
VH: B5 VH
VL: B5 VL

- Peak (nM); thrombin generation, FVIII-neutralised plasma + 20 nM TFPIα; 200 nM antibody [5]: 0 nM
B9: mAb 1F91 (antibody, IgG1, V domains shown)
VH: DVQLQESGPGLVKPSQSLSLTCTVSGYSITSDYAWNWIRQFPGNKLEWMGYISYSGSTSYNPSLKSRISITRDTSKNQFFLQLNSVTTEDTATYYCARWAYDGPWGQGTLVTVSA
VL: QIVLSQSPALLSASPGEKVTMTCRASSSVSHMHWYQQKPGSSPKPWIYATSNLASGVPARFSGSGSGTSYSLTITRVEAEDAATYYCQQWSSNPFTFGSGTKLEIKR
